Reference: article PMC7083227
Where two headings read alike, the source gives them in different places.

How the values were obtained:
[1] = biological target: MOP Vγ9Vδ2 TCR (soluble, biotinylated) (human); assay: SPR; BIAcore3000; biotinylated TCRs (2000-3000 RU) captured on streptavidin-coated CM5 chips; BTN IgV domain injected as analyte, 1-200 μM; HBS-EP buffer; equilibrium affinity measurements
[2] = biological target: Vγ9Vδ1 TCR (soluble, biotinylated) (human); assay: as above
[3] = biological target: MOP Vγ9Vδ2 TCR (soluble, biotinylated) (human); assay: as above; remark: listed apart in the source
[4] = biological target: Vγ9Vδ1 TCR (soluble, biotinylated) (human); assay: as above; remark: listed apart in the source
[5] = biological target: Vγ9Vδ2 TCR (soluble, biotinylated; clone not stated for this experiment); assay: SPR; settings: parent: est. 1.0; read off a plot
[6] = biological target: Vγ9Vδ2 TCR (soluble, biotinylated; clone not stated for this experiment) (human); assay: SPR; BIAcore3000; biotinylated TCRs (2000-3000 RU) captured on streptavidin-coated CM5 chips; BTN IgV domain injected as analyte, 1-200 μM; HBS-EP buffer; equilibrium affinity measurements
[7] = biological target: Vγ9Vδ2 TCR (soluble, biotinylated; clone not stated for this experiment) (human); assay: as above; remark: listed apart in the source
[8] = biological target: BTN2A1 peptide on (human); assay: SPR, equilibrium affinity and Scatchard analysis; representative experiment of Figure 3B; soluble, other
[9] = biological target: BTN2A1 peptide on (human); assay: SPR, equilibrium affinity; biotinylated TCR captured on a streptavidin chip, BTN2A1 IgV as analyte; soluble, other

In the case of “BTN2A1 IgV (from UniProt Q7KYR7 27-142) (domain or fragment)”, the Kd [1] is reported as 49.9 µM, the Kd [2] is reported as 46.6 µM and the Kd [3] is reported as 48.4 µM. For the same substance, the Kd [4] was 47.9 µM.

For BTN2A1 IgV (from UniProt Q7KYR7) Y133A, the ratio to parent [5] was 0.8.

“BTN2A1 IgV K79A (from UniProt Q7KYR7 27-142) (domain or fragment)” was tested, and the Kd [6] was 100 µM.

For “BTN2A1 IgV S72A (from UniProt Q7KYR7 27-142) (domain or fragment)”, the Kd [7] was 10 to 15 µM and the Kd [6] was 11 to 15 µM.

Vγ9Vδ2 MOP TCR gave a Kd [8] of 48.4 µM and a Kd [9] of 49.9 µM.
